Results on 32 molecules are retold here after paper PMC7864924, “Structures of active-state orexin receptor 2 rationalize peptide and small-molecule agonist recognition and receptor activation” (Nature Communications, 2021).

The target of this assay is engineered OX2R carrying an additional amino-terminal Avi-tag, biotinylated (Homo sapiens, UniProt O43614, residues V261–A291 deleted, biotin on the Avi-tag (BirA biotin-protein ligase)).

B1: 18 (VHH)
VHH: QVQLVESGGGLVQAGGSLRLSCAASGFPVNTAHMYWYRQAPGKEREWVAAIASSGDMTLYADSVKGRFTISRDNAKNTVYLQMNSLKPEDTAVYYCNVKDWGWWYVAYDYWGQGTQVTVS
Regarding B1, the binding result is “binds”.

B2: 3 (VHH)
VHH: QVQLVESGGGLVQAGGSLRLSCAASGFPVNWKSMAWYRQAPGKEREWVAAISSFGWYTEYADSVKGRFTISRDNAKNTVYLQMNSLKPEDTAVYYCWVKVGATYYGQGTQVTVS
For B2, the binding result is “binds”.

B3: 23 (VHH)
VHH: QVQLVESGGGLVQAGGSLRLSCAASGFPVVWKQMAWYRQAPGKEREWVAAISSWGWYTEYADSVKGRFTISRDNAKNTVYLQMNSLNPEDTAVYYCFVKVGDGYTGQGTQVTVS
As to B3, the binding result is listed as “binds”.

B4: 29 (VHH)
VHH: QVQLVESGGGLVQAGGSLRLSCAASGFPVKWKTMAWYRQAPGKEREWVAAISSWGLYTEYADSVKGRFTISRDNAKNTVYLQMNSLKPEDSAVYYCYVGVGAGYRGQGTQVTVS
Regarding B4, the binding result is recorded as “binds”.

B5: 28 (VHH)
VHH: QVQLVESGGGLVQAGGSLRLSCAASGFPVVWKTMWWYRQAPGKEREWVAAISSYGWYTEYADSVNGRFTISRDNAKNTVYLQMNSLKPEDTAVYYCAVLVGYTYEGQGTQVTVS
Take B5: the binding result is reported as “binds”.

B6: 35 (VHH)
VHH: QVQLVESGGGLVQAGGSLRLSCAASGFPVRWKSMAWYRQAPGKEREWVAAISSYGFWTEYADSVKGRFTISRDNAKNTVYLQMNSLKPEDTAVYYCIVHVGVSYRGQGTQVTVS
On to B6, for which the binding result is listed as “binds”.

B7: 21 (VHH)
VHH: QVQLVESGGGLVQAGGSLRLSCAASGFPVKWKTMAWYRQAPGKEREWVAAISSWGLYTEYADSVKGRFTISRDNAKNTVYLQMNSLKPEDTAVYYCLVQVGVTYHGHGTQVTVS
Take B7: the binding result was “binds”.

B8: 8 (VHH)
VHH: QVQLVESGGGLVQAGGSLRLSCAASGFPVKHREMYWYRQAPGKEREWVAAIVSKGNVTEYADSVKGRFTISRDNAKNTVYLQMNSLKPEDTAVYYCNVKDYGWWNAHYDYWGQGTQVTVS
Consider B8, for which the binding result is on record as “binds”.

B9: 14 (VHH)
VHH: QVQLVESGGGLVQAGGSLRLSCAASGFPVKHRHMYWYRQAPGKEREWVAAIASNGHRTEYADSVKGRFTISRDNAKNTVYLQMNSLKPEDTAVYYCNVKDYGFYLWHYDYWGQGTQVTVS
Take B9: the binding result is “binds”.

B10: 11 (VHH)
VHH: QVQLVESGGGLVQAGGSLRLSCAASGFPVAHREMFWYRQAPGKEREWVAAITSKGSQTAYADSVKGRFTISRDNAKNTVYLQMNSLKPEDTAVYYCNVKDYGWWTAVYDYWGQGTQVTVS
In the case of B10, the binding result is reported as “binds”.

B11: 6 (VHH)
VHH: QVQLVESGGGSVQAGGSLRLSCAASGNISAIGYLGWFRQAPGKEREGVAALVTWFGKTYYADSVKGRFTVSLDNAKNTVYLQMNSLKPEDTALYYCAAATYGNKNPLTDSYYSYWGQGTQVTVS
Consider B11, for which the binding result is recorded as “binds”.

B12: 1 (VHH)
VHH: QVQLVESGGGSVQAGGSLRLSCAASGWIQTITYLGWFRQAPGKEREGVAALVTNEGNTYYADSVKGRFTVSLDNAKNTVYLQMNSLKPEDTALYYCAAASWGFVTPLWYYYTYWGQGTQVTVS
Regarding B12, the binding result is listed as “binds”.

B13: 9 (VHH)
VHH: QVQLVESGGGLVQAGGSLRLSCAASGFPVKQHHMYWYRQAPGKEREWVAAIESGGKETRYADSVKGRFTISRDNAKNTVYLQMNSLKPEDTAVYYCNVKDWGWWWTNYDYWGQGTQVTVS
Regarding B13, the binding result is “binds”.

B14: 12 (VHH)
VHH: QVQLVESGGGLVQAGGSLRLSCAASGFPVYTAYMYWYRQAPGKEREWVAAIESQGQHTIYADSVKGRFTISRDNAKNTVYLQMNSLKPEDTAVYYCNVKDWGWWWLNYDYWGQGTQVTVS
On to B14, for which the binding result is listed as “binds”.

B15: 17 (VHH)
VHH: QVQLVESGGGLVQAGGSLRLSCAASGFPVVGWHMYWYRQAPGKEREWVAAINSSGKKTLYADSVKGRFTISRDNAKNTVYLQMNSLKPEDTAVYYCNVKDAGWFWYNYDYWGQGTQVTVS
Consider B15, for which the binding result is listed as “binds”.

B16: 16 (VHH)
VHH: QVQLVESGGGLVQAGGSLRLSCAASGFPVARWHMYWYRQAPGKEREWVAAINSTGDMTLYADSVKGRFTISRDNAKNTVYLQMNSLKPEDTAVYYCNVKDWGWYWVNYDYWGQGTQVTVS
As for B16, the binding result is “binds”.

B17: 2 (VHH)
VHH: QVQLVESGGGLVQAGGSLRLSCAASGFPVYRAFMAWYRQAPGKEREWVAAIHSTGWWTHYADSVKGRFTISRDNAKNTVYLQMNSLKPEDTAVYYCHVWVGYTYIGQGTQVTVS
For B17, the binding result is “binds”.

B18: 22 (VHH)
VHH: QVQLVESGGGLVQAGGSLRLSCAASGFPVYKHTMYWYRQAPGKEREWVAAINSTGAETAYADSVKGRFTISRDNAKNTVYLQMNSLKPEDTAVYYCEVYVGWFYHGQGTQVTVS
On to B18, for which the binding result is given as “binds”.

B19: 32 (VHH)
VHH: QVQLVESGGGLVQAGGSLRLSCAASGFPVAEKSMYWYRQAPGKEREWVAAIASNGVLTAYADSVKGRFTISRDNAKNTVYLQMNSLKPEDTAVYYCEVYVGYFYHGQGTQVTVS
In the case of B19, the binding result is recorded as “binds”.

B20: 33 (VHH)
VHH: QVQLVESGGGLVQAGGSLRLSCAASGFPVDKAHMYWYRQAPGKEREWVAAIDSTGSYTHYADSVKGRFTISRDNAKNTVYLQMNSLKPEDTAVYYCEVYVGYMYHGQGTQVTVS
As to B20, the binding result was “binds”.

B21: 31 (VHH)
VHH: QVQLVESGGGLVQAGGSLRLSCAASGFPVTENTMYWYRQAPGKEREWVAAITSNGSQTAYADSVKGRFTISRDNAKNTVYLQMNSLKPEDTAVYYCEVYVGYFYHGQGTQVTVS
B21: the binding result was “binds”.

B22: 26 (VHH)
VHH: QVQLVESGGGLVQAGGSLRLSCAASGFPVAHFVMYWYRQAPGKEREWVAAISSTGYNTAYADSVKGRFTISRDNAKNTVYLQMNSLKPEDTAVYYCEVYVGYFYHGQGTQVTVS
For the molecule B22, the binding result is given as “binds”.

B23: 24 (VHH)
VHH: QVQLVESGGGLVQAGGSLRLSCAASGFPVDAYVMYWYRQAPGKEREWVAAIASQGHPTAYADPVKGRFTISRDNAKNTVYLQMNSLKPEDTAVYYCEVYVGYFYHGQGTQVTVS
On to B23, for which the binding result was “binds”.

B24: 25 (VHH)
VHH: QVQLVESGGGLVQAGGSLRLSCAASGFPVNNHVMYWYRQAPGKEREWVAAISSQGAETAYADSVKGRFTISRDNAKNTVYLQMNSLKPEDTAVYYCEVYVGYFYHGQGTQVTVS
With B24, the binding result is given as “binds”.

B25: 30 (VHH)
VHH: QVQLVESGGGLVQAGGSLRLSCAASGFPVKTYTMYWYRQAPGKEREWVAAIESTGRYTAYADSVKGRFTISRDNAKNTVYLQMNSLKPEDTAVYYCEVYVGFFYHGQGTQVTVS
As for B25, the binding result is recorded as “binds”.

B26: 5 (VHH)
VHH: QVQLVESGGGSVQAGGSLRLSCAASGYISGIEYLGWFRQAPGKEREGVAALYTFEGTTYYADSVKGRFTVSLDNAKNTVYLQMNSLKPEDTALYYCAAAKYGEWGPLWFHEYWYWGQGTQVTVS
As to B26, the binding result is listed as “binds”.

B27: 4 (VHH)
VHH: QVQLVESGGGSVQAGGSLRLSCAASGAINHIWYLGWFRQAPGKEREGVAALYTWTGWTYYADSVKGRFTVSLDNAKNTVYLQMNSLKPEDTALYYCAAAYFGFASPLRARRYEYWGQGTQVTVS
Consider B27, for which the binding result is “binds”.

B28: 10 (VHH)
VHH: QVQLVESGGGLVQAGGSLRLSCAASGFPVETRHMYWYRQAPGKEREWVAAIQSEGYLTHYADSVKGRFTISRDNAKNTVYLQMNSLKPEDTAVYYCNVKDIGWLWVHYDYWGQGTQVTVS
In the case of B28, the binding result is “binds”.

B29: 20 (VHH)
VHH: QVQLVESGGGLVQAGGSLRLSCAASGFPVKTNKMAWYRQAPGKEREWVAAITSYGSWTVYADSVKGRFTISRDNAKNTVYLQMNSLKPEDTAVYYCAVWVGALYIGQGTQVTVS
Consider B29, for which the binding result is “binds”.

B30: 27 (VHH)
VHH: QVQLVESGGGLVQAGGSLRLSCAASGFPVTTRSMYWYRQAPGKEREWVAAIASNGRLTAYADSVKGRFTISRDNAKNTVYLQMNSLEPEDTAVYYCEVFVGYYYHGQGTQVTVS
In the case of B30, the binding result is on record as “binds”.

B31: 34 (VHH)
VHH: QVQLVESGGGLVQAGGSLRLSCAASGFPVNNRSMYWYRQAPGKEREWVAAIASSGFTTAYADSVKGRFTISRDNAKNTVYLQMNSLKPEDTAVYYCEVVVGYWYHGQGTQVTVS
For B31, the binding result is on record as “binds”.

B32: 19 (VHH)
VHH: QVQLVESGGGLVQAGGSLRLSCAASGFPVMENTMYWYRQAPGKEREWVAAIDSYGYYTYYADSVKGRFTISRDNAKNTVYLQMNSLKPEDTAVYYCNVKDVGDHWWFYDYWGQGTQVTVS
Turning to B32, the binding result is recorded as “binds”.
